Measurements as given in publication PMC5383399, “Kinesin-4 KIF21B is a potent microtubule pausing factor” (eLife, 2017).
Blank lines part the entries; values can stand above or below the molecule they belong to.

Tests used:
[1] = molecular target: KIF21B-FL-GFP (full-length KIF21B-GFP) (human); assay: single-molecule fluorescence intensity analysis (TIRF); GFP-tagged motors moving on MTs, compared with single GFP immobilized, or KIF5B-560-GFP moving, in a separate chamber on the same coverslip; 15 µM tubulin, 20 nM mCherry-EB3, MRB80 with 50 mM KCl, 30°C
[2] = molecular target: KIF21B-FL-GFP (full-length KIF21B-GFP) (human); assay: single-molecule fluorescence intensity and photobleaching-step analysis (TIRF); purified GFP fusions diluted in PBS and immobilized on plasma-cleaned coverslips, room temperature; compared with monomeric GFP and dimeric GFP-EB3
[3] = molecular target: KIF21B-MD-CCΔrCC-GFP (human); assay: as above
[4] = molecular target: KIF21B-FL-ΔrCC-GFP (human); assay: as above
[5] = molecular target: KIF21B-MD-CC1-GFP (purified) (human); assay: single-molecule fluorescence intensity analysis (TIRF); GFP-tagged motors moving on MTs, compared with single GFP immobilized, or KIF5B-560-GFP moving, in a separate chamber on the same coverslip; 15 µM tubulin, 20 nM mCherry-EB3, MRB80 with 50 mM KCl, 30°C
[6] = molecular target: KIF21B-MD-CC1-GFP (purified) (human); assay: single-molecule fluorescence intensity and photobleaching-step analysis (TIRF); purified GFP fusions diluted in PBS and immobilized on plasma-cleaned coverslips, room temperature; compared with monomeric GFP and dimeric GFP-EB3
[7] = molecular target: the molecule itself; assay: single-molecule fluorescence intensity analysis (TIRF); GFP-tagged motors moving on MTs, compared with single GFP immobilized, or KIF5B-560-GFP moving, in a separate chamber on the same coverslip; 15 µM tubulin, 20 nM mCherry-EB3, MRB80 with 50 mM KCl, 30°C

- stoichiometry N [1]: 2
- stoichiometry N [2]: 2
Molecule: KIF21B-FL-GFP (full-length KIF21B-GFP) (natural protein)

- stoichiometry N [3]: 2
Molecule: KIF21B-MD-CCΔrCC-GFP (domain or fragment)

- stoichiometry N [4]: 2
Molecule: KIF21B-FL-ΔrCC-GFP (natural protein)

Molecule: KIF21B-MD-CC1-GFP (purified) (domain or fragment)
- fluorescence intensity relative to single monomeric GFP [5]: 1.8 fold
- stoichiometry N [6]: 2

B1: KIF5B-560-GFP (domain or fragment, UniProt P33176 1-560, looked up)
chain: MADLAECNIKVMCRFRPLNESEVNRGDKYIAKFQGEDTVVIASKPYAFDRVFQSSTSQEQVYNDCAKKIVKDVLEGYNGTIFAYGQTSSGKTHTMEGKLHDPEGMGIIPRIVQDIFNYIYSMDENLEFHIKVSYFEIYLDKIRDLLDVSKTNLSVHEDKNRVPYVKGCTERFVCSPDEVMDTIDEGKSNRHVAVTNMNEHSSRSHSIFLINVKQENTQTEQKLSGKLYLVDLAGSEKVSKTGAEGAVLDEAKNINKSLSALGNVISALAEGSTYVPYRDSKMTRILQDSLGGNCRTTIVICCSPSSYNESETKSTLLFGQRAKTIKNTVCVNVELTAEQWKKKYEKEKEKNKILRNTIQWLENELNRWRNGETVPIDEQFDKEKANLEAFTVDKDITLTNDKPATAIGVIGNFTDAERRKCEEEIAKLYKQLDDKDEEINQQSQLVEKLKTQMLDQEELLASTRRDQDNMQAELNRLQAENDASKEEVKEVLQALEELAVNYDQKSQEVEDKTKEYELLSDELNQKSATLASIDAELQKLKEMTNHQKKRAAEMMASLLK
notes: KIF5B (kinesin-1), residues 1–560; also called N-terminal fragment of kinesin-1, KIF5B residues 1–560; not shown: GFP, C-terminal, kept
- fluorescence intensity relative to single monomeric GFP [7]: ~1.8 fold
- stoichiometry N [7]: 2
